Source: article PMC2133194
Read-outs that look alike come from different tables or passages of the source.

Columns and labels:
Assay in all cases: flow cytometry on cells
[1] = molecular target: human CD34 on CHO/FTVII/C2GnT cells cotransfected with HEC-GlcNAc6ST (human) (UniProt P28906)
[2] = molecular target: human CD34 on CHO/FTVII/C2GnT cells cotransfected with KSGal6ST and HEC-GlcNAc6ST (human) (UniProt P28906)
[3] = molecular target: human CD34 on CHO/FTVII/C2GnT cells cotransfected with KSGal6ST (human) (UniProt P28906)
[4] = molecular target: human CD34 on CHO/FTVII/C2GnT cells cotransfected with HEC-GlcNAc6ST (human) (UniProt P28906); remark: listed apart in the source
[5] = molecular target: human CD34 on CHO/FTVII/C2GnT cells cotransfected with KSGal6ST and HEC-GlcNAc6ST (human) (UniProt P28906); remark: listed apart in the source
[6] = molecular target: human CD34 on CHO/FTVII/C2GnT cells cotransfected with KSGal6ST (human) (UniProt P28906); remark: listed apart in the source

MFI of L-sel/IgM staining (KSGal6ST 0 ug, HEC-GlcNAc6ST 1.0 ug) [1]: 114 MFI | MFI of L-sel/IgM staining (KSGal6ST 0 ug, HEC-GlcNAc6ST 1.5 ug) [1]: 163 MFI | MFI of L-sel/IgM staining (KSGal6ST 0.5 ug, HEC-GlcNAc6ST 0.5 ug) [2]: 935 MFI | MFI of L-sel/IgM staining (KSGal6ST 0.5 ug, HEC-GlcNAc6ST 1.0 ug) [2]: 830 MFI | MFI of L-sel/IgM staining (KSGal6ST 1.0 ug, HEC-GlcNAc6ST 0.5 ug) [2]: 917 MFI | MFI of L-sel/IgM staining (KSGal6ST 1.0 ug, HEC-GlcNAc6ST 0 ug) [3]: 364 MFI | MFI of L-sel/IgM staining (KSGal6ST 1.5 ug, HEC-GlcNAc6ST 0 ug) [3]: 391 MFI | MFI of L-sel/IgM staining (KSGal6ST 0 ug, HEC-GlcNAc6ST 1.0 ug) [4]: 60 MFI | MFI of L-sel/IgM staining (KSGal6ST 0.5 ug, HEC-GlcNAc6ST 0.5 ug) [5]: 836 MFI | MFI of L-sel/IgM staining (KSGal6ST 1.0 ug, HEC-GlcNAc6ST 0 ug) [6]: 197 MFI
Substance: L-selectin/IgM chimera (from UniProt P18337 39-332) (Fc fusion)
